This is an account of results in patent US20100003237.

Series [1] concerns the target Soluble rat tail collagen Type I, P02454.
Series [2] concerns the target insoluble collagen conjugated to fluorescein isothiocyanate (FITC) (Anaspec #85111 or Sigma Collagen #C4361).
Series [3] has as its target FITC-labeled collagen (Elastin #CF308).
The target of series [4] is FITC-labeled collagen (Sigma #C4361).

Soluble rat tail collagen Type I, P02454, sequence (P02454 152-1207, chain 1 of 2): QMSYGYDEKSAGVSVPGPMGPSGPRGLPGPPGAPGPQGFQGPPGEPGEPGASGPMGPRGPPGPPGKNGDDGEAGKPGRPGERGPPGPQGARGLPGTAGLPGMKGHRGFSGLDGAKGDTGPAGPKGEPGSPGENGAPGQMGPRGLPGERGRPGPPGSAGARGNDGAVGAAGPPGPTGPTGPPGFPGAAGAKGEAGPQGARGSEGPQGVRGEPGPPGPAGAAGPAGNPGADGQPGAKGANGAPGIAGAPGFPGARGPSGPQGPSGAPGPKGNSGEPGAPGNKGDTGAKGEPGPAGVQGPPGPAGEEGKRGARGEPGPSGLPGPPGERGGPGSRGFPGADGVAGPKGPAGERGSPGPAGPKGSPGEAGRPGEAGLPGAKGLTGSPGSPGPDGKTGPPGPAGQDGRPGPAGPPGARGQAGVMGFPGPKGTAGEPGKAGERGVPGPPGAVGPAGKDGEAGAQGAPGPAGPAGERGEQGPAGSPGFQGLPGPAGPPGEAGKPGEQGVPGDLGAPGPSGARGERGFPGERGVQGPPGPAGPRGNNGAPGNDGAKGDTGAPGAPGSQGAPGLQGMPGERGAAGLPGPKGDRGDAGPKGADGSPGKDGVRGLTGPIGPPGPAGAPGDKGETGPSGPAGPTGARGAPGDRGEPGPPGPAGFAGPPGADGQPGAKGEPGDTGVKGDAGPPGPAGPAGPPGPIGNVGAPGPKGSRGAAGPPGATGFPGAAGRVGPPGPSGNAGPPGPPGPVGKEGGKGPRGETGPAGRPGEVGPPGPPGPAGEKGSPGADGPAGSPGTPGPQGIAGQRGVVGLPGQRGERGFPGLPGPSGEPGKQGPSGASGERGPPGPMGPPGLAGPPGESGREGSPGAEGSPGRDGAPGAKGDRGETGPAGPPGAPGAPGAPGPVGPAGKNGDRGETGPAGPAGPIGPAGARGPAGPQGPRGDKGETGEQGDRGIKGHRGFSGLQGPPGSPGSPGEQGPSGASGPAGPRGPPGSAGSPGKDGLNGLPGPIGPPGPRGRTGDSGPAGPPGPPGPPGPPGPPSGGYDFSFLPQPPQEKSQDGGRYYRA
Soluble rat tail collagen Type I, P02454, sequence (chain, as listed by the source, chain 2 of 2): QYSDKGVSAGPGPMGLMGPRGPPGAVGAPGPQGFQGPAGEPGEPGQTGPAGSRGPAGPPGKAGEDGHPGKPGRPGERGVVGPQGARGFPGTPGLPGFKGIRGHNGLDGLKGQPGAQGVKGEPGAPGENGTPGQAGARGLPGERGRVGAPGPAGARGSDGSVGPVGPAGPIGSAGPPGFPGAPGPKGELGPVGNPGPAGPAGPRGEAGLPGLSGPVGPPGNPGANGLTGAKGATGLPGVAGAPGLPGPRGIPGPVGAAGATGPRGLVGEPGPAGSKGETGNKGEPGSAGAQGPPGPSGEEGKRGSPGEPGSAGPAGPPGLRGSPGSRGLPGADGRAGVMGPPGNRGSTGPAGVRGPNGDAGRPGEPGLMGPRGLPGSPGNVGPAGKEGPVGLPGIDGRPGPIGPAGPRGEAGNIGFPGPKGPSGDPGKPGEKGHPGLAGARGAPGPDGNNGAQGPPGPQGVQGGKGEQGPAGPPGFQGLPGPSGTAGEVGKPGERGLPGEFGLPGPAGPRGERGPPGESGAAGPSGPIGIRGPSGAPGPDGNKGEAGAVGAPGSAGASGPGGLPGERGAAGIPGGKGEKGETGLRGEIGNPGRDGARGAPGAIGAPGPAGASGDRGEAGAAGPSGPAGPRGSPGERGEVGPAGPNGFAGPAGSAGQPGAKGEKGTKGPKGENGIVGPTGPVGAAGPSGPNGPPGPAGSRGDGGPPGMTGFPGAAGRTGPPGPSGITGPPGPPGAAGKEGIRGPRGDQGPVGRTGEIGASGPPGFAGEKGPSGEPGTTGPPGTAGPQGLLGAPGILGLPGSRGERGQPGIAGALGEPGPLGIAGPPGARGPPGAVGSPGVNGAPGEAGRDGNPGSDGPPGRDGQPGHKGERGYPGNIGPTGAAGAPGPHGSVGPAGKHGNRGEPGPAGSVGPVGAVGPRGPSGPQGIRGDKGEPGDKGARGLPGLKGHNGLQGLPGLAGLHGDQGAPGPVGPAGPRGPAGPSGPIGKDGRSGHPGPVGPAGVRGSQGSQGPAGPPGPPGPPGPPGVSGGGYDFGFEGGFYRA

B1: cathepsin S (R&D systems, activated) (protein)
chain: LPDSVDWREKGCVTEVKYQGSCGACWAFSAVGALEAQLKLKTGKLVSLSAQNLVDCSTEKYGNKGCNGGFMTTAFQYIIDNKGIDSDASYPYKAMDQKCQYDSKYRAATCSKYTELPYGREDVLKEAVANKGPVSVGVDARHPSFFLYRSGVYYEPSCTQNVNHGVLVVGYGDLNGKEYWLVKNSWGHNFGEEGYIRMARNKGNHCGIASFPSYPEI
Consider B1, for which the “degradation of soluble rat tail collagen Type I (1 hour at 37° C., SDS-Page gels, Coomassie Blue staining)” value in series [1] was “Cathepsins B, D and S showed some slight degradation of rat collagen at the manufacture specified pH and no degradation of rat collagen at pH 8.0”.

B2: Wild type hMMP-1 clone BAP006-2 (expressed in CHO-S cells), activated with AMPA (protein)
chain: FVLTEGNPRWEQTHLTYRIENYTPDLPRADVDHAIEKAFQLWSNVTPLTFTKVSEGQADIMISFVRGDHRDNSPFDGPGGNLAHAFQPGPGIGGDAHFDEDERWTNNFREYNLHRVAAHELGHSLGLSHSTDIGALMYPSYTFSGDVQLAQDDIDGIQAIYGRSQNPVQPIGPQTPKACDSKLTFDAITTIRGEVMFFKDRFYMRTNPFYPEVELNFISVFWPQLPNGLEAAYEFADRDEVRFFKGNKYWAVQGQNVLHGYPKDIYSSFGFPRTVKHIDAALSEENTGKTYFFVANKYWRYDEYKRSMDPGYPKMIAHDFPGIGHKVDAVFMKDGFFYFFHGTRQYKFDPKTKRILTLQKANSWFNCRKN
Regarding B2, in series [2], the “cleavage of insoluble collagen (7.5% SDS polyacrylamide gel, Coomassie Blue)” value was “after 24 hours incubation at 25 °C or 37° C., hMMP-1 partially cleaved the α1(I) and α2(I) collagen chains into ¾ and ¼ length digestion products for all hMMP-1 proteins tested”. Further, in series [3], the RFU, 37° C. (fluorescence of supernatant after 144 hours, replicate 1) came out at 1730 RFU; the RFU, 37° C. (fluorescence of supernatant after 144 hours, replicate 2) was determined as 2300 RFU; the RFU, Avg 37° C. (fluorescence of supernatant after 144 hours) is 2010 RFU. In series [4], this protein returned an RFU, 37° C. (fluorescence of supernatant after 144 hours, replicate 1) of 1270 RFU; an RFU, 37° C. (fluorescence of supernatant after 144 hours, replicate 2) of 1280 RFU; an RFU, Avg 37° C. (fluorescence of supernatant after 144 hours) of 1270 RFU.

B3: hMMP-1 (purchased from R&D Systems, #901-MP), activated with AMPA (protein)
chain: B2 chain
Take B3: in series [2], the “cleavage of insoluble collagen (7.5% SDS polyacrylamide gel, Coomassie Blue)” value was “after 24 hours incubation at 25 °C or 37° C., hMMP-1 partially cleaved the α1(I) and α2(I) collagen chains into ¾ and ¼ length digestion products for all hMMP-1 proteins tested”. In series [3], this protein showed an RFU, 37° C. (fluorescence of supernatant after 144 hours, replicate 1) of 3490 RFU; an RFU, 37° C. (fluorescence of supernatant after 144 hours, replicate 2) of 2980 RFU; an RFU, Avg 37° C. (fluorescence of supernatant after 144 hours) of 3240 RFU. In series [4], this protein came in with an RFU, 37° C. (fluorescence of supernatant after 144 hours, replicate 1) of 1160 RFU; an RFU, 37° C. (fluorescence of supernatant after 144 hours, replicate 2) of 1140 RFU; an RFU, Avg 37° C. (fluorescence of supernatant after 144 hours) of 1150 RFU.

B4: Wild type hMMP-1 clone BAP006-10 (pET303CTHis, expressed in BL21 (DE3) E. coli), activated with AMPA (protein)
chain: FVLTEGNPRWEQTHLTYRIENYTPDLPRADVDHAIEKAFQLWSNVTPLTFTKVSEGQADIMISFVRGDHRDNSPFDGPGGNLAHAFQPGPGIGGDAHFDEDERWTNNFREYNLHRVAAHELGHSLGLSHSTDIGALMYPSYTFSGDVQLAQDDIDGIQAIYGRSQNPVQPIGPQTPKACDSKLTFDAITTIRGEVMFFKDRFYMRTNPFYPEVELNFISVFWPQLPNGLEAAYEFADRDEVRFFKGNKYWAVQGQNVLHGYPKDIYSSFGFPRTVKHIDAALSEENTGKTYFFVANKYWRYDEYKRSMDPGYPKMIAHDFPGIGHKVDAVFMKDGFFYFFHGTRQYKFDPKTKRILTLQKANSWFNCRKNHHHHH
As for B4, the “cleavage of insoluble collagen (7.5% SDS polyacrylamide gel, Coomassie Blue)” value in series [2] is “after 24 hours incubation at 25 °C or 37° C., hMMP-1 partially cleaved the α1(I) and α2(I) collagen chains into ¾ and ¼ length digestion products for all hMMP-1 proteins tested”. In series [3], this protein came in with an RFU, 37° C. (fluorescence of supernatant after 144 hours, replicate 1) of 2670 RFU; an RFU, 37° C. (fluorescence of supernatant after 144 hours, replicate 2) of 3060 RFU; an RFU, Avg 37° C. (fluorescence of supernatant after 144 hours) of 2860 RFU. For the same protein, in series [4], the RFU, 37° C. (fluorescence of supernatant after 144 hours, replicate 1) is 1290 RFU; the RFU, 37° C. (fluorescence of supernatant after 144 hours, replicate 2) turned out to be 1340 RFU; the RFU, Avg 37° C. (fluorescence of supernatant after 144 hours) came out at 1310 RFU.
